The text below walks through data of patent US20240415884A1 (UNIVERSITY OF PITTSBURGH OF THE COMMONWEALTH SYSTEM OF …, published 2024).

The target of assay [1] is T1, human CD276 polypeptide (antigen of the ELISA of Clones #1-#8) (human, UniProt Q5ZPR3 29-461, limits assumed).
T1 construct: For panning it was fused at its C-terminus to human IgG1 Fc (CD276-Fc); also called B7-H3
T1 sequence: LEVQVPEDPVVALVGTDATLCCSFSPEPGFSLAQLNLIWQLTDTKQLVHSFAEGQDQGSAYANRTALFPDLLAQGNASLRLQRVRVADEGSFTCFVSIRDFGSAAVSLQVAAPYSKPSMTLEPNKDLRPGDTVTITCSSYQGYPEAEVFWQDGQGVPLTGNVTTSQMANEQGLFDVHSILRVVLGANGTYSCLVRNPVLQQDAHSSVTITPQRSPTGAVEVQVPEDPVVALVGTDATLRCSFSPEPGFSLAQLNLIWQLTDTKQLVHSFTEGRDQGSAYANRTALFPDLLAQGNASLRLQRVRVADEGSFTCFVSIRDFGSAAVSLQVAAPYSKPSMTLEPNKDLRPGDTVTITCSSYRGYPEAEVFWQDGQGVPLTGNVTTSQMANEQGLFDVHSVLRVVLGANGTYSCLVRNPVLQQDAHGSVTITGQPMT
As to the kind of experiment: ELISA on a human CD276 polypeptide. In general terms: ELISA stands for enzyme-linked immunosorbent assay.

Assay [2] has as its target T2, recombinant CD276 polypeptide that included four Ig-like extracellular domains (human, UniProt Q5ZPR3 29-466).
T2 construct: extracellular domain; also called 4Ig CD276 polypeptide; a CD276 polypeptide
T2 sequence (looked up): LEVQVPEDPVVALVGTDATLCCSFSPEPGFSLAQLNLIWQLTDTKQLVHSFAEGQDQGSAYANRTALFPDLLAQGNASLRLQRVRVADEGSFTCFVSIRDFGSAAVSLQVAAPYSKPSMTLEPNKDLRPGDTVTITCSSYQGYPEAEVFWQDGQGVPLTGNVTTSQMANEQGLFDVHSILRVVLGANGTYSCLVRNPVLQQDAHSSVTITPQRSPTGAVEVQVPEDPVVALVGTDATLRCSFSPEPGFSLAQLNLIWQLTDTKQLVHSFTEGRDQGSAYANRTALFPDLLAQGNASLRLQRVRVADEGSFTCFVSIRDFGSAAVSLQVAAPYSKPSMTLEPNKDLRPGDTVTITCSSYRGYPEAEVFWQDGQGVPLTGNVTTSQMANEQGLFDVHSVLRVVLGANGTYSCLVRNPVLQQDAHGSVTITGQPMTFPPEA
Nature of the assay: ELISA on recombinant CD276 polypeptide with four Ig-like extracellular domains (FIG. 28). The procedure:
Clones #9 and #10, two VH binders, bound to a CD276 polypeptide with EC₅₀ values of 8.1 and 1.2 nM, respectively, as tested by ELISA. […] The molecular weight of these two clones were validated by mass spectrum. The binding kinetics of clone #9 and #10 to the 4Ig CD276 polypeptide with both his tag and Fc tag were measured by surface plasmon resonance. […] See, FIGS. 28-32.

The target of assay [3] is T3, 4Ig CD276 polypeptide with Fc tag (human, UniProt Q5ZPR3 29-466).
T3 construct: extracellular domain; SPR antigen; also called 4Ig CD276-Fc; not shown: Fc tag
T3 sequence (looked up): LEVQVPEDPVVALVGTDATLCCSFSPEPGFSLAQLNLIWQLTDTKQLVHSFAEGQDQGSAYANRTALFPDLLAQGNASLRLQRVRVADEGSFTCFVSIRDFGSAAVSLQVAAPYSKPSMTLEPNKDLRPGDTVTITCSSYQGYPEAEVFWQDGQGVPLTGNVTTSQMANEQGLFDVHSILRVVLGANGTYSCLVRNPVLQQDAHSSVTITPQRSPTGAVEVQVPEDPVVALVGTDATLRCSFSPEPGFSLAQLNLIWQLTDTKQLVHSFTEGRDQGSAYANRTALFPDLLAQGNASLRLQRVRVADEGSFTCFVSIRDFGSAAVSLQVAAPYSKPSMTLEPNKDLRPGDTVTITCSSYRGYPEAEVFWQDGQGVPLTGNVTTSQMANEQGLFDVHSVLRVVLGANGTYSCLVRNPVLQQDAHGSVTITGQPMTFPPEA
As to the kind of experiment: SPR, panel CD276-Fc; sensorgrams with fits, response up to about 11 RU; which partner is on the chip is not stated. Background: In SPR one partner is held on a chip, and binding of the other changes the refractive index at the surface.

The target in assay [4] is T4, 4Ig CD276 polypeptide with his tag (human, UniProt Q5ZPR3 29-466).
T4 construct: extracellular domain; SPR antigen; also called 4Ig CD276-his; not shown: his tag
T4 sequence (looked up): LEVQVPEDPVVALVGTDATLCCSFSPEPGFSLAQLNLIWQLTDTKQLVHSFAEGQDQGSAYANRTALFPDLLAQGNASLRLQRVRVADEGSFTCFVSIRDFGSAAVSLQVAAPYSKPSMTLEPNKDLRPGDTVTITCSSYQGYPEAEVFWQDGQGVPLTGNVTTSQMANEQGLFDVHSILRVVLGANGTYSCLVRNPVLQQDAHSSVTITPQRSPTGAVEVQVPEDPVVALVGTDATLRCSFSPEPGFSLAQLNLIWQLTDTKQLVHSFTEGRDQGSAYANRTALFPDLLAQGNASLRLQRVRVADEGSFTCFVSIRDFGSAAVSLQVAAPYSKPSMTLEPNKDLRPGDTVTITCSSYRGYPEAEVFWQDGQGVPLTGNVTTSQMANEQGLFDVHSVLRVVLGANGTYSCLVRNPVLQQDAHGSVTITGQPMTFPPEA
As to the kind of experiment: SPR, panel CD276-His; sensorgrams with fits, response up to about 12 RU; which partner is on the chip is not stated.

Assay [5] deals with T3, 4Ig CD276 polypeptide with Fc tag. As to the kind of experiment: SPR, panel CD276-Fc; sensorgrams with fits, response up to about 15 RU; which partner is on the chip is not stated.
Assay [6] deals with T4, 4Ig CD276 polypeptide with his tag. Nature of the assay: SPR, panel CD276-His; sensorgrams with fits, response up to about 18 RU; which partner is on the chip is not stated.

For orientation: EC50 means the concentration needed to bring the measured effect to its halfway point. One may read the Kd as the concentration at which binding is half-saturated. A higher Kd goes with weaker binding.

B1: Clone #5 (ab5) (VHH)
VHH: EVQLVESGGGLVQPGGSLRLSCAASPFPFTIYEMSWVRQASGKALEWIGYINHSGSTNYNPSLKSRVTISRDNSKNTLYLQMNSLRAEDTAMYYCAILAPDYWGQGTLVTVSS
notes: also called #5 (VH domain)
The molecule B1 had a concentration for a half-maximal effect (EC50) in assay [1] of 1.2 nM.

B2: Clone #8 (ab8) (Fab, V domains shown)
VH: QVQLVESGGGLVKPGGSLRLSCAASGFTFSDYYMSWIRQAPGKGLEWVSYISSSGSTIYYADSVKGRFTISRDNAKNSLYLQMNSLRAEDTAVYYCARDAPTSGWKWFAPDYWGQGALVTVSS
VL: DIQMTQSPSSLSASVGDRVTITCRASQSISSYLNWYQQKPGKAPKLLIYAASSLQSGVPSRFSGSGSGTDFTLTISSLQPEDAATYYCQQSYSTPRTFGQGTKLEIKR
notes: also called #8 (Fab)
Take B2: in assay [1], the EC50 came to 4 nM.

B3: Clone #1 (ab1) (Fab, V domains shown)
VH: QVQLVESGGGLVKPGGSLRLSCAASGFTFSDYYMSWIRQAPGKGLEWVSYISSSGSTIYYADSVKGRFTISRDNAKNSLYLQMNSLRAEDTAVYYCARGINFGLDIWGQGTTVTVSS
VL: DIQMTQSPSSLSASVGDRVTITCRASQSISSYLNWYQQKPGKAPKLLIYAASSLQSGVPSRFSGSGSGTDFTLTISSLQPEDVGVYYCMQALQTLFGQGTKVDIKR
notes: also called #1 (Fab)
Consider B3, for which a half-maximal effect in assay [1] (EC50) was put at 34 nM.

B4: Clone #2 (ab2) (Fab, V domains shown)
VH: QVQLVESGGGLVKPGGSLRLSCAASGFTFSDYYMSWIRQAPGKGLEWVSYISSSGSTIYYADSVKGRFTISRDNAKNSLYLQMNSLRAEDTAVYYCARRGAMGHHDGFDMWGLGTMVTVSS
VL: DIQMTQSPSSLSASVGDRVTITCRASQSISSYLNWYQQKPGKAPKLLIYAASSLQSGVPSRFSGSGSGTDFTLTISSLQPEDVAVYYCQQRSNWPLYTFGQGTKLEIKR
notes: also called #2 (Fab)
Consider B4, for which, in assay [1], the EC50 was 46 nM.

B5: Clone #3 (ab3) (Fab, V domains shown)
VH: QVQLVESGGGLVKPGGSLRLSCAASGFTFSDYYMSWIRQAPGKGLEWVSYISSSGSTIYYADSVKGRFTISRDNAKNSLYLQMNSLRAEDTAVYYCARRGGSYYARGAFDIWGQGTMVTVSS
VL: DIQMTQSPSSLSASVGDRVTITCRASQSISSYLNWYQQKPGKAPKLLIYAASSLQSGVPSRFSGSGSGTDFTLTISSLQPEDAATYYCQHRSDWPPKFTFGPGTKVDIKR
notes: also called #3 (Fab)
In assay [1], B5 displayed an EC50 of 26 nM.

B6: Clone #9 (ab9) (VHH)
VHH: EVQLVESGGGVVQPGRSLRLSCAASGFTFSSYAMHWVRQAPGQGLEWVSTIGPRGINTHYADSVKGRFTISRDNSKNTLYLQMNSLRAEDTATYYCARDRVGYNSYGMDVWGQGTMVTVSS
notes: also called A10; #9 (VH domain)
Regarding B6, the EC50 in assay [2] amounted to 8.1 nM. The Kd in assay [3] amounted to 5.3 nM; in assay [4], 6 nM.

B7: Clone #6 (ab6) (VHH)
VHH: EVQLVESGGGLVQPGGSLRLSCAASGSPFPHYEMSWVRQAPGKGLEWMGWINTNTGKSTYAQGFTGRFTISRDNSKNTLYLQMNSLRAEDTAVYYCARSGYGYYFDYWGQGTLVTVSS
notes: also called #6 (VH domain)
On to B7, for which, in assay [1], the midpoint of the response, the EC50, lay at 10 nM.

B8: Clone #10 (ab10) (VHH)
VHH: EVQLVESGGGVVQPGRSLRLSCAASGFTFSSYAMHWVRQAPGKGLEWIGEIYHGGSTDYNPSLKSRVTISRDDSTNTLYLQMNSLRAEDTAVYYCTRGGKRLLSVYGVDVWGQGTMVTVSS
notes: also called C7; #10 (VH domain)
As for B8, the EC50 in assay [2] stood at 1.2 nM. In addition, the Kd in assay [5] worked out at 5.2 nM; in assay [6] it was 7.83 nM.

B9: Clone #4 (ab4) (VHH)
VHH: EVQLVESGGGLVQPGGSLRLSCAASWFDFQDYDMSWVRQAPGKGLEWIGEINHSGSTNYNPSLKSRVTISRDNSKNTLYLQMNSLRAEDTAVYYCAKIGYWGQGTLVTVSS
notes: kind VHH is used for single domain; also called #4 (VH domain)
On to B9, for which, in assay [1], a half-maximal response (EC50) required 0.9 nM.

B10: Clone #7 (ab7) (VHH)
VHH: EVQLVESGGGLVQPGGSLRLSCAASGFTFSSYAMSWVRQAPGQGLEWIGEINHSGSTNYNPSLKSRVTISRDNSKNTLYLQMNSLRAEDTAVYYCVHIDYWGQGTLVAVSS
notes: also called #7 (VH domain)
Molecule B10 registered a 50% effective concentration (EC50) in assay [1] of 0.6 nM.
